Literature values, collected in publication PMC2715106.

Assays:
[1] = target: core RNA polymerase (Escherichia coli) (UniProt P0A7Z4); assay: SEC
[2] = target: core RNA polymerase (Escherichia coli) (UniProt P0A7Z4); assay: in vitro transcription

Chain of sigma32 (P0AGB3 whole entry): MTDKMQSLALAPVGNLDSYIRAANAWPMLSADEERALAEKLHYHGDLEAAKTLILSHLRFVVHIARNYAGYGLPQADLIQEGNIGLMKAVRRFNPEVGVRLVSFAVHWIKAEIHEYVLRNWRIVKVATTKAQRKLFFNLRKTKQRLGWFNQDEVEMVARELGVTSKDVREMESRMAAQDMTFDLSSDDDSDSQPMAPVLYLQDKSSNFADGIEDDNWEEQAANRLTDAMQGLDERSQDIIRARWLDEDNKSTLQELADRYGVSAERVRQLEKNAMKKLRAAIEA

Kd [1]: 1.24 nM
Kd [2]: 1 nM
Substance: sigma32 (from UniProt P0AGB3)
